Data reported in PMC3342945.

T1: membrane IL-6R on BAF/gp130/IL6R/TNF cells (Homo sapiens) (UniProt P08887)
T1 sequence: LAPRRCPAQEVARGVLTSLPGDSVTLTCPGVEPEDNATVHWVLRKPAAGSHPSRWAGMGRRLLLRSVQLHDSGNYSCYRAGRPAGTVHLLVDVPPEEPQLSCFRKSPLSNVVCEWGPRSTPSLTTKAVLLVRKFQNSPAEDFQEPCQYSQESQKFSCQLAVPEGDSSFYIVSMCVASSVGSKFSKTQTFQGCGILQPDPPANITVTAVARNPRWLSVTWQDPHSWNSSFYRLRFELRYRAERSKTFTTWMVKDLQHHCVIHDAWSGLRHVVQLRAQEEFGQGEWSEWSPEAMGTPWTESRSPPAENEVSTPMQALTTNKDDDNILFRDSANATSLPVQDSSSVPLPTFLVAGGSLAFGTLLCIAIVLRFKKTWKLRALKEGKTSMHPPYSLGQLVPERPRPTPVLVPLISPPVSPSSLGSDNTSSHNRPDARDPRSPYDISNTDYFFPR


How the values were obtained:
[1] = molecular target: T1, membrane IL-6R on BAF/gp130/IL6R/TNF cells (Homo sapiens); assay: flow cytometry
[2] = molecular target: T2, Hyper-IL-6 (IL-6 and sIL-6R fusion, flexible linker) (Homo sapiens, UniProt P08887 113-323+P05231:29-212, internal_change); assay: filter binding
[3] = molecular target: T2, Hyper-IL-6 (IL-6 and sIL-6R fusion, …); assay: filter binding; remark: listed apart in the source

Molecule	binding result [3]	also measured
GGGGAGGCUGUGGUGAGGG [AIR-3A Atto647N]		Kd [1]: 8.5 nM
GGGGAGGCUGUGGUGAGGG (structured_RNA) [AIR-3A]		Kd [2]: 60.4 ± 16 nM
GGGGAGGCUGUGGUGAGUG (ssRNA) [G18U]	no binding	
GGGGAGGCUGUGGUGAUUG (ssRNA) [G17U/G18U]	no binding	
GGGGAGGCUGUGGUGAUGG (ssRNA) [G17U]	no binding	
